Columns and labels:
[1] = system: T2DM patients; assay: Rosiglitazone treatment of T2DM patients: serum lipocalin-2 and metabolic parameters; format: in vivo, human; details: 32 T2DM patients, rosiglitazone 4 mg twice daily, 8 weeks
Experimental: The affinity-purified anti-human or anti-murine lipocalin-2 IgG was biotinylated with a kit from Pierce and used as the detection antibodies. The unlabeled anti-human or anti-murine lipocalin-2 IgG was used for coating a 96-well microtiter plate overnight at 4° C. Human or mouse serum was diluted (1:50) into PBS, and 100 μl of the diluted samples or recombinant standards were applied to each well and incubated at 37° C. for 1 h. The plates were washed three times and then incubated with 100 μl of the detection antibody for another 2 h. After washing for another three times with PBS, the wells were incubated with streptavidin-conjugated horseradish peroxidase for 1 h and subsequently reacted with tetramethyl-benzidine reagent for 15 min. A total of 100 μl of 2 M H2SO4 was added to each well to stop the reaction, and the absorbance at 450 nm was measured. The intra- and inter-assay coefficients of variance were determined by measuring five serum samples in a total of six independent assays with duplicate determinations.
The effect of rosiglitazone on serum levels of lipocalin-2 was investigated in 32 T2DM patients (see Example 2) treated with this drug (4 mg twice daily) for 8 weeks.

[2] = system: genes involved in glucose and lipid metabolism in skeletal muscle and liver; assay: mRNA expression of genes involved in glucose and lipid metabolism in skeletal muscle and liver of lipocalin-2-treated mice; format: in vivo, mouse; details: versus vehicle
Experimental: Total RNA was isolated from mouse liver, epididymal adipose tissue and soleus muscle using the RNeasy kit (Qiagen). Subsequently, mRNA was reverse transcribed into cDNA using the oligo-dT primer (Roche). The relative gene abundance was quantified by Taqman real-time PCR using the pre-developed assay kits (Applied Biosystems, Foster city, CA). The reactions were performed on the ABI 7000 sequence detection system.
(§1) To evaluate the effect of lipocalin-2 on glucose homeostasis and insulin sensitivity, normal C57 mice were treated with murine lipocalin-2 by intraperitoneal injection of the recombinant protein (5 mg protein/kg body weight, twice a day at 12 hr intervals).
The effects of lipocalin-2 on mRNA expression of several genes involved in glucose and lipid metabolism in skeletal muscle and liver were investigated (FIGS. 4A-4B).

[3] = system: L6 myotubes; assay: Fatty acid uptake, fatty acid oxidation and triglyceride accumulation in L6 myotubes; format: cell-based, rat
Text: FIG. 5A is a bar graph of […] ^3H-palmitate uptake (fold over control) in differentiated L6 myotubes treated with the indicated concentrations of lipocalin-2 or vehicle for 48 hr. FIG. 5B is a bar graph of ^14C-oleate oxidation (fold over control) in differentiated L6 myotubes treated with the indicated concentrations of lipocalin-2 or vehicle for 48 hr. Fatty acid oxidation was quantified by the production of ^14CO2 from [1-^14C]oleate. * P<0.05; ** P<0.01 versus untreated cells.
(§2) Rat L6 skeletal myoblasts were grown in α-minimum essential medium (αMEM) containing 10% (v/v) FBS and 1% antibiotic solution (100 units/ml penicillin, 100 μg/ml streptomycin, 250 ng/ml amphotericin B) in a humidified atmosphere of 95% air and 5% CO2 at 37° C. For differentiation to myotubes, cells were cultured in αMEM containing 2% (v/v) FBS for 5-7 days.
[^3H]-palmitic acid (Amersham, Quebec, Canada) was used to determine fatty acid uptake as previously described (Bastie, C. C., et al. Diabetes, 53:2209-2216 (2004)). with slight modifications. […] After treatments, culture medium was removed and cells washed twice with wash buffer (140 mM NaCl, 20 mM HEPES-Na, 2.5 mM MgSO4, 1 mM CaCl2, 5 mM KCl pH 7.4, 0.1% defatted albumin) and once with HEPES buffer. Cells were subsequently incubated with transport solution (10 μM defatted albumin, 0.5 μCi/ml [^3H]-palmitic acid; FA:BSA ratio=2) for 1 minute at room temperature. Then the reaction was stopped by washing with pre-cold stop buffer (140 mM NaCl, 20 mM HEPES-Na, 2.5 mM MgSO4, 1 mM CaCl2, 5 mM KCl pH 7.4) Non-specific uptake was measured in the presence of excess palmitate (2 mM) and subtracted from all other values. Cells were then lysed with 1 M KOH and aliquots were transferred to scintillation vials for ^3H radioactivity counting.

[4] = system: L6 myotubes; assay: 2-deoxyglucose uptake in L6 myotubes; format: cell-based, rat
Experimental: FIG. 6 is a bar graph of 2-deoxyglucose uptake (arbitrary units) in L6 myotubes treated without or with indicated concentrations of lipocalin-2 for 48 hr, and then stimulated without or with insulin for another 20 min. The rate of glucose uptake was measured by uptake of 2-deoxy-D-[^3H]glucose. * P<0.05 versus untreated cells; # P<0.05 versus cells treated with insulin alone (n=4-6).
as §2
Cells were incubated with various concentration of lipocalin-2 for 20 h, subsequently serum-starved in the continued presence of lipocalin-2 for the final 4 h in 24-well plates prior to further treatment. Cells were then washed twice with PBS and treated with insulin or vehicle for 15 min. After treatments, glucose uptake was determined. Briefly, cells were incubated in transport solution (140 mM NaCl, 20 mM HEPES-Na, 2.5 mM MgSO4, 1 mM CaCl2, 5 mM KCl and 0.5 μCi/ml 2-deoxy-D-[^3H]glucose, pH 7.4) for 5 min at room temperature. Nonspecific uptake was measured in the presence of cytochalasin B (10 μM). Cells were then lysed with 1 M KOH, and aliquots were transferred to scintillation vials for ^3H radioactivity counting.

[5] = system: C57 mice; assay: Chronic treatment of C57 mice with recombinant lipocalin-2: body weight, food intake, metabolic parameters, ipGTT and ITT; format: in vivo, mouse
Experimental: Fasting (16 hr) plasma glucose levels and triglyceride (TG) concentrations were measured by using a Glucose (GO) assay kit (Sigma) and Triglyceride GPO reagent (Pointe Scientific Inc., Lincoln Park, Mich., USA) respectively. Fasting serum insulin concentrations were quantified by using the commercial ELISA kits from Mercodia AB (Uppsala, Sweden). Serum total cholesterol and free fatty acids (FFAs) were analyzed by using the kits from Wako (Richmond, Va., USA) and Roche Diagnostics respectively. TG contents in liver and soleus muscle were analyzed as described elsewhere (Ellis, B. A et al., Am J Physiol Endocrinol Metab. 279:E554-560 (2000); Xu, A., et al. J Clin Invest 112:91-100 (2003)).
For ipGTT, overnight fasted mice (16 hr) were given a glucose load by intraperitoneal injection (1 g glucose/kg body weight). For ITT, mice were starved for 6 h, and then intraperitonally injected with insulin (1 U/kg body weight). Plasma glucose levels were measured at different time points as indicated.
as §1

[6] = liver tissue of lipocalin-2-treated mice
[7] = skeletal muscle of lipocalin-2-treated mice
[8] = L6 myotubes, acute treatment within 2 hr (data not shown)
[9] = fasting, recombinant lipocalin-2 5 mg/kg i.p. twice a day, 4 weeks
[10] = recombinant lipocalin-2 5 mg/kg i.p. twice a day, 4 weeks

CN(CCOc1ccc(CC2SC(=O)NC2=O)cc1)c1ccccn1 (centres unmarked) [rosiglitazone]
Body Mass Index [1]: 25.5 ± 3.6 Kg/m^2
Fasting Glucose [1]: 6.8 ± 1.2 mM
Fasting Insulin [1]: 7.9 ± 3.5 mIU/l
HOMA-IR [1]: 2.4 ± 1.2
Lipocalin-2 (serum level) [1]: 61.9 ± 25.9 ng/mL

B1: Lipocalin-2: recombinant murine lipocalin-2 expressed in BL21 cells, His6 tag and endotoxin removed (protein)
chain: QDSTQNLIPAPSLLTVPLQPDFRSDQFRGRWYVVGLAGNAVQKKTEGSFTMYSTIYELQENNSYNVTSILVRDQDQGCRYWIRTFVPSSRAGQFTLGNMHRYPQVQSYNVQVATTDYNQFAMVFFRKTSENKQYFKITLYGRTKELSPELKERFTRFAKSLGLKDDNIIFSVPTDQCIDN
modifications: left off: small tags and cut ends
notes: recombinant murine lipocalin-2 expressed in BL21 cells, His6 tag and endotoxin removed
expression of glucose-6-phosphatase (G6P) [2, 6]: modest, but significant increase
expression of phosphoenolpyruvate carboxylase (PEPCK) [2, 6]: modest, but significant increase
expression of several genes involved in fatty acid transport, synthesis and oxidation [2, 6]: did not modulate
expression of GLUT1 [2, 7]: decreased
expression of GLUT4, acetyl CoA carboxylase (ACO) and several other fatty acid transport proteins (FATP2, 3 and 5, and CD36) [2, 7]: did not affect
expression of acyl-CoA oxidase [2, 7]: inhibited
expression of uncoupling protein 2 (UCP2) [2, 7]: inhibited
steady-state mRNA level of fatty acid transport protein 1 (FATP-1) [2, 7]: significantly increased
steady-state mRNA level of fatty acid transport protein 4 (FATP-4) [2, 7]: significantly increased
triglyceride accumulation, increase compared with untreated cells ([3]; L6 myotubes at 72 hr following lipocalin-2 treatment, n=4, p<0.05): 1.51±0.58 folds
fatty acid uptake and oxidation, acute treatment [3, 8]: no obvious effects
fatty acid uptake ([3]; L6 myotubes, prolonged incubation with lipocalin-2 (24 h and 48 h), 3H-palmitate): significant increase
rate of fatty acid oxidation ([3]; L6 myotubes, prolonged incubation with lipocalin-2 (24 h and 48 h), 14C-oleate): decrease
basal glucose uptake ([4]; L6 myotubes at 48 hr after lipocalin-2 treatment): significantly decreased
basal and insulin-stimulated glucose uptake, acute treatment [4, 8]: no obvious effects
magnitude of insulin-stimulated increase in glucose uptake, versus untreated cells ([4]; L6 myotubes, lipocalin-2-treated, not statistically significant): slightly lower
daily average of serum lipocalin-2 levels, higher than that of the endogenous protein ([5]; 5 mg protein/kg i.p. twice a day at 12 hr intervals): 2.2-3.5 folds
Plasma glucose [5, 9]: 137.4 ± 11.6 mg/dL
Plasma insulin [5, 9]: 1.5 ± 0.04 ng/mL
Serum TG [5, 9]: 93.9 ± 8.9 mg/dL
glucose tolerance (ipGTT) ([5]; long-term lipocalin-2 treatment, day 24, 1 g glucose/kg i.p.): induced glucose intolerance
insulin sensitivity (ITT) ([5]; long-term lipocalin-2 treatment, day 26, insulin 1 U/kg i.p.): decreased insulin sensitivity
Serum FFAs [5, 10]: 0.72 ± 0.08 mmol/L
Serum adiponectin [5, 10]: 7.9 ± 1.8 µg/mL
Serum total cholesterol [5, 10]: 101.4 ± 8.8 mg/dL
TG contents in liver [5, 10]: 6.9 ± 0.8 mg/g tissue
TG contents in muscle [5, 10]: 7.3 ± 0.8 mg/g tissue

Source: US8481032B2, “Lipocalin-2 antibodies for methods of treatment” (The University of Hong Kong, priority 2006, dated 2013)
